Test [1] has as its target brefeldin A-inhibited guanine nucleotide-exchange protein 3 (BIG3) (human) (UniProt Q5TH69). The experiment in a line: cell-based or functional assay.
The target is the same in test [2]. The experiment in a line: co-immunoprecipitation with anti-BIG3 antibody from peptide-treated MCF-7 cells, PHB2 immunoblot, band area against untreated cells; 50 µM peptide. A general note: In western blotting, separated proteins are transferred to a membrane and probed.
Test [3] shares this target. Kind of test: co-immunoprecipitation with anti-BIG3 antibody from peptide-treated MCF-7 cells, PHB2 immunoblot, band area against untreated cells; 50 µM each peptide.
Test [4] shares this target. The experiment in a line: co-immunoprecipitation from peptide-treated MCF-7 cells, Western blotting; 10 µM each peptide.
Test [5] has as its target brefeldin A-inhibited guanine nucleotide-exchange protein 3 (BIG3) (human, UniProt Q5TH69 1-2177). Kind of test: cell-based or functional assay.

Positions of bridges follow the written chain, without caps; N, C: chain ends. Non-standard residues stand in square brackets, D forms with d. No end group written: not given here. Nle = CCCC[C@H](N)C(=O)O

Chain of brefeldin A-inhibited guanine nucleotide-exchange protein 3 (BIG3) (Q5TH69 whole entry): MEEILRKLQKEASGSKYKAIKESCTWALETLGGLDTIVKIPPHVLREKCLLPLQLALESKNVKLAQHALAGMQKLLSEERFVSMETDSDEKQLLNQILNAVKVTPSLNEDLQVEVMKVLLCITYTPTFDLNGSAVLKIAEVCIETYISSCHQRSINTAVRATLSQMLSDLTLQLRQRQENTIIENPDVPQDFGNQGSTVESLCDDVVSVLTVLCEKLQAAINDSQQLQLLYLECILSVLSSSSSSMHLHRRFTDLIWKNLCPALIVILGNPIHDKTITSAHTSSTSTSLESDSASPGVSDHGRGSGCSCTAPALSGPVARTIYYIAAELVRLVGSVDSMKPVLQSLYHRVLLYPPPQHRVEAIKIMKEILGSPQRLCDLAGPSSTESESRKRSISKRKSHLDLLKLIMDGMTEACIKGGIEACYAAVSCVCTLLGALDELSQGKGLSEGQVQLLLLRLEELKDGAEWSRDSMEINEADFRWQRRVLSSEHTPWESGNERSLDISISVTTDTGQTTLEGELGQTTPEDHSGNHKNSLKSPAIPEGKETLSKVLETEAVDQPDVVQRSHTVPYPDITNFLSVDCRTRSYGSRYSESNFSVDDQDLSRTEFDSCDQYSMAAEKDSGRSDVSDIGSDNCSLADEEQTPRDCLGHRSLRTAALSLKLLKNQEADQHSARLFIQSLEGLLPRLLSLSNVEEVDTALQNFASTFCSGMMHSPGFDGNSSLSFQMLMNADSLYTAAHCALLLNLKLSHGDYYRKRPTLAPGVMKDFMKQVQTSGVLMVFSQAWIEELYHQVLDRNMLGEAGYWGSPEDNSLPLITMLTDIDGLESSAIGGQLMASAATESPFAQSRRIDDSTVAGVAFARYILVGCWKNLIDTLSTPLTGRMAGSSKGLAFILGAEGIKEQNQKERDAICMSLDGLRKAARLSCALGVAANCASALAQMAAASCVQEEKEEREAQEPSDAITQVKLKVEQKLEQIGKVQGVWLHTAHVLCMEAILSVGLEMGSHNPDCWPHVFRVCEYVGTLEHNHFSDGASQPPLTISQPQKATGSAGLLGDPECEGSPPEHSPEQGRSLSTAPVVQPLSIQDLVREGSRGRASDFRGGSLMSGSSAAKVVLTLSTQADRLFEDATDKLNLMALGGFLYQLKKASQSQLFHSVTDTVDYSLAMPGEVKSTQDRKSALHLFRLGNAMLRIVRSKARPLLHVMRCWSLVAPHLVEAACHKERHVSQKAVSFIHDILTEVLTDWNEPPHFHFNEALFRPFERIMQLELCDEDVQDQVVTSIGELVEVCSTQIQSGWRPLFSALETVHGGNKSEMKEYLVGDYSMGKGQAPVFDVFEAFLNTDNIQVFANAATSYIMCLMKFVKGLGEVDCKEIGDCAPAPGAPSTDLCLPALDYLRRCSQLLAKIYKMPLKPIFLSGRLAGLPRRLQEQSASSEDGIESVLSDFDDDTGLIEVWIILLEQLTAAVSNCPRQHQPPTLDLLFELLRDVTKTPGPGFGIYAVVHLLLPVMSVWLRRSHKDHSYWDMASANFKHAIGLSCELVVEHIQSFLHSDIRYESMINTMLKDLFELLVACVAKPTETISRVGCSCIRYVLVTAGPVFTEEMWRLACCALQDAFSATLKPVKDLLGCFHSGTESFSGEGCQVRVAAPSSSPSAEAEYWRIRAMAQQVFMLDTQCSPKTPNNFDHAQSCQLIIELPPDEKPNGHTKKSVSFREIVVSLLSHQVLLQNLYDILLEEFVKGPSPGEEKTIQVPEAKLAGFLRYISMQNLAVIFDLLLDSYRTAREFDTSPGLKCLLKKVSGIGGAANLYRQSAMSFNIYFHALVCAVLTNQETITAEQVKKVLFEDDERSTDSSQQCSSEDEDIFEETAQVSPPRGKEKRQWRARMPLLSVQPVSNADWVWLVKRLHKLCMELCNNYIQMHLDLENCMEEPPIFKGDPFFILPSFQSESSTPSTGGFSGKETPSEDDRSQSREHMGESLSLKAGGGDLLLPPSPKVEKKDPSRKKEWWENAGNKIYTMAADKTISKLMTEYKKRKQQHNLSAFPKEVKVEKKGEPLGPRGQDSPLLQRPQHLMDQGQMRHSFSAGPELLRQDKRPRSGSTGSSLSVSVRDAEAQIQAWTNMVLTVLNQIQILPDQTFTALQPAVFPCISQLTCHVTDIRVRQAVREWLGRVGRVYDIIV
Chain of brefeldin A-inhibited guanine nucleotide-exchange protein 3 (BIG3) (human) (Q5TH69 whole entry): as above

In test [1], “PHB2 sequence-derived peptide No. 1 (11-22aa)” displayed an IC50 against growth of triple-negative breast cancer cell line MDA-MB-231, 96 h of 0.462 µM; a Ser39 phosphorylation of PHB2, band intensity compared to ERAP treatment of 40%; a suppression of estrogen-dependent growth of MCF-7, 10 µM, 24 h of 65%; a suppression of growth of MDA-MB-231, peptide alone at its IC50, 96 h of 50%. Also, in test [1], the suppression ratio of E2-dependent growth of MCF-7, 10 µM, 24 h was 63%; the suppression ratio of E2-dependent growth of MCF-7, peptide alone worked out at 65%; the suppression ratio of estrogen (E2)-dependent growth of MCF-7, 10 µM, 24 h came out at 58%. Moreover, the inhibition ratio of the binding between BIG3 and PHB2 in test [2] was 64%.

As to “PHB2 sequence-derived peptide No. 5 (76-90aa)”, in test [1], the IC50 against growth of triple-negative breast cancer cell line MDA-MB-231, 96 h was determined as 0.273 µM; the Ser39 phosphorylation of PHB2, band intensity compared to ERAP treatment was 20%; the suppression of growth of MDA-MB-231, peptide alone at its IC50, 96 h stood at 50%; the suppression ratio of E2-dependent growth of MCF-7, 10 µM, 24 h was 51%. Moreover, in test [1], the suppression ratio of E2-dependent growth of MCF-7, peptide alone was 55%; the suppression ratio of estrogen (E2)-dependent growth of MCF-7, 10 µM, 24 h was 49%; the suppression ratio of estrogen-dependent growth of MCF-7, 10 µM, 24 h stood at 54%. Also, the inhibition ratio of the binding between BIG3 and PHB2 in test [2] stood at 80%.

With “combination of PHB2 peptides No. 1 (11-22aa) and No. 5 (76-90aa)”, the inhibition ratio of the binding between BIG3 and PHB2 in test [3] is 87%. Besides, the inhibition ratio of the interaction between BIG3 and PHB2 in test [4] stood at 67%. In test [1], this molecule registered a Ser39 phosphorylation of PHB2, band intensity compared to ERAP treatment of 70%; a growth suppressive effect on E2-dependent growth of MCF-7 of 88%; a suppression of E2-dependent growth of MCF-7, 10 µM each of 100%; a suppression of growth of MDA-MB-231, both peptides at their IC50, 96 h of 62%.

Regarding “combination of cyclic PHB2 peptides 11-21aa and 76-88aa”, the inhibition ratio of the interaction between BIG3 and PHB2 in test [4] came to 81%. For the same molecule, in test [1], the suppression of E2-dependent growth of MCF-7, 4 µM cyclic 11-21aa and 2 µM cyclic 76-88aa, 24 hours came out at 82%; the suppression ratio of E2-dependent growth of MCF-7, 4 µM cyclic 11-21aa and 2 µM cyclic 76-88aa, up to 96 hours turned out to be 88%; the suppression ratio of E2-dependent growth of MCF-7, 10 µM each, 24 h was 96%.

B1: PHB2 sequence-derived peptide No. 37 (peptide)
peptide: DLAGRLPAGPRG
modifications: not fully specified (C-terminus)
In the case of B1, in test [5], the “suppression ratio of E2-dependent growth of MCF-7, in combination with 10 µM No. 5 (76-90aa)” value (“suppression ratio … with 10 µM No. 5 (76-90aa)” below) is no less than 90%.

B2: PHB2 sequence-derived peptide No. 83 (peptide)
peptide: ESVFTVEGGHRAIFFNRIGG
modifications: not fully specified (C-terminus)
For the molecule B2, in test [5], the “suppression ratio of estrogen-dependent growth of MCF-7, 10 µM, 24 h” value was determined as 61%.

B3: alanine-mutated PHB2 peptide No. 72 (peptide)
peptide: QYPIIADIRARPRKI
modifications: not fully specified (C-terminus)
B3: in test [5], the “suppression ratio of estrogen-dependent growth of MCF-7, 10 µM, 24 h” value stood at 37%.

B4: PHB2 peptide 11-90aa (peptide)
peptide: RLPAGPRGMGTALKLLLGAGAVAYGVRESVFTVEGGHRAIFFNRIGGVQQDTILAEGLHFRIPWFQYPIIYDIRARPRKI
As to B4, in test [5], the “Ser39 phosphorylation of PHB2, relative to ERAP treatment” value was 30% and the “suppression ratio of E2-dependent growth of MCF-7, 24 h, 50 µM” value was 57%.

B5: cyclic PHB2 peptide 11-21aa (peptide)
peptide: CRLPAGPRG[Nle]GTCF[Nal]RRRR
modifications: disulfide 1-13; not fully specified; also: amide bond between the added C-terminal and N-terminal residues (cyclic)
Regarding B5, in test [5], the “IC50 for E2-dependent growth of MCF-7” value was 4.06 µM; the “suppression ratio of E2-dependent growth of MCF-7, 4 µM, up to 96 hours” value came out at 41%; the “suppression ratio of E2-dependent growth of MCF-7, 10 µM, 24-hour treatment” value stood at 53%; the “suppression ratio of E2-dependent growth of MCF-7, 10 µM, after 96 hours” value stood at 67%.

B6: alanine-mutated PHB2 peptide No. 71 (peptide)
peptide: QYPIAYDIRARPRKI
modifications: not fully specified (C-terminus)
As for B6, the “suppression ratio of estrogen-dependent growth of MCF-7, 10 µM, 24 h” value in test [5] was 38%.

B7: PHB2 peptide 11-22aa with glycines at positions 15 and 18 substituted with D-leucines (peptide)
peptide: RLPA[dL]PR[dL]MGTARRRRRRRR
modifications: not fully specified (C-terminus)
As for B7, in test [5], the “suppression ratio of estrogen-dependent growth of MCF-7” value is roughly 65%.

B8: PHB2 sequence-derived peptide No. 6 (86-100aa) (peptide)
peptide: RPRKISSPTGSKDLQRRRRRRRR-NH2
Regarding B8, in test [5], the “suppression ratio of E2-dependent growth of MCF-7, peptide alone” value was roughly 10%.

B9: PHB2 sequence-derived peptide No. 36 (peptide)
peptide: LKDLAGRLPAGP
modifications: not fully specified (C-terminus)
Turning to B9, in test [5], the “suppression ratio … with 10 µM No. 5 (76-90aa)” value is no less than 90%.

B10: PHB2 sequence-derived peptide No. 38 (peptide)
peptide: AGRLPAGPRGMG
modifications: not fully specified (C-terminus)
With B10, the “suppression ratio … with 10 µM No. 5 (76-90aa)” value in test [5] was no less than 90%.

B11: alanine-mutated PHB2 peptide No. 59 (peptide)
peptide: RLPAAPRGMGTA
modifications: not fully specified (C-terminus)
In the case of B11, the “suppression ratio of estrogen-dependent growth of MCF-7, 10 µM, 24 h” value in test [5] is 19%.

B12: PHB2 sequence-derived peptide No. 40 (peptide)
peptide: GPRGMGTALKLL
modifications: not fully specified (C-terminus)
For the molecule B12, the “suppression ratio … with 10 µM No. 5 (76-90aa)” value in test [5] was no less than 90%.

B13: PHB2 sequence-derived peptide No. 2 (42-50aa) (peptide)
peptide: TVEGGHRAIRRRRRRRR-NH2
On to B13, for which, in test [5], the “suppression ratio of estrogen-dependent growth of MCF-7, 10 µM, 24 h” value was determined as 20%.

B14: PHB2 sequence-derived peptide No. 3 (38-50aa) (peptide)
peptide: ESVFTVEGGHRAIRRRRRRRR-NH2
Consider B14, for which the “suppression ratio of estrogen-dependent growth of MCF-7, 10 µM, 24 h” value in test [5] was 17%.

B15: PHB2 sequence-derived peptide No. 39 (peptide)
peptide: PAGPRGMGTALK
modifications: not fully specified (C-terminus)
For B15, the “suppression ratio … with 10 µM No. 5 (76-90aa)” value in test [5] is no less than 90%.

B16: alanine-mutated PHB2 peptide No. 73 (peptide)
peptide: QYPIIYAIRARPRKI
modifications: not fully specified (C-terminus)
For B16, the “suppression ratio of estrogen-dependent growth of MCF-7, 10 µM, 24 h” value in test [5] came out at 13%.

B17: cyclic PHB2 peptide 76-88aa (peptide)
peptide: CQYPIIYDIRARPRCF[Nal]RRRR
modifications: disulfide 1-15 (inferred); not fully specified; also: X17: an unnatural amino acid, amide bond between the added C-terminal and N-terminal residues (cyclic)
As for B17, in test [5], the “IC50 for E2-dependent growth of MCF-7” value stood at 2.11 µM; the “suppression ratio of E2-dependent growth of MCF-7, 2 µM, up to 96 hours” value came out at 59%; the “suppression ratio of E2-dependent growth of MCF-7, 10 µM, 24-hour treatment” value came out at 58%; the “suppression ratio of E2-dependent growth of MCF-7, 10 µM, after 96 hours” value stood at 72%.

B18: alanine-mutated PHB2 peptide No. 62 (peptide)
peptide: RLPAGPRAMGTA
modifications: not fully specified (C-terminus)
As for B18, the “suppression ratio of estrogen-dependent growth of MCF-7, 10 µM, 24 h” value in test [5] stood at 8%.

B19: PHB2 sequence-derived peptide No. 82 (peptide)
peptide: EGGHRAIFFNRIGG
modifications: not fully specified (C-terminus)
Take B19: the “suppression ratio of estrogen-dependent growth of MCF-7, 10 µM, 24 h” value in test [5] worked out at 59%.

Values taken from US20220098256A1 (TOKUSHIMA UNIVERSITY, published 2022).
